Measured values published in paper PMC8809517, “Cofactor-independent RNA editing by a synthetic S-type PPR protein”.
Residue numbers refer to the chain shown, from its start.

T1: GFP-9S library array, motif 4 ND N98D (synthetic construct, N98D)
T1 chain: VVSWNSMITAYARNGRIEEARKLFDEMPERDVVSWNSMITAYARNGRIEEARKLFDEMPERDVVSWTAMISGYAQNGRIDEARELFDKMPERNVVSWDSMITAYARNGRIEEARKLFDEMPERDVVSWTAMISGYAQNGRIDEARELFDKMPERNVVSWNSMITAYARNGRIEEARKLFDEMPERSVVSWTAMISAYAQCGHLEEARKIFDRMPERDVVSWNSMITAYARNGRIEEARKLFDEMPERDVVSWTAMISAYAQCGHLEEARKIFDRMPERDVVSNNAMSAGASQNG

T2: GFP-9S library array, motif 4 ND (synthetic construct)
T2 chain: T1 chain with D98N

T3: GFP-9S library array, motif 4 ND N98L;D124W (synthetic construct, N98L;D124W)
T3 chain: T1 chain with D98L, D124W

T4: GFP-9S library array, motif 4 ND N98C;D124K (synthetic construct, N98C;D124K)
T4 chain: T1 chain with D98C, D124K

T5: GFP-9S library array, motif 4 ND N98R;D124N (synthetic construct, N98R;D124N)
T5 chain: T1 chain with D98R, D124N

B1: Cy5-rpoA (ssRNA)
RNA: AUUACACGUGA
B2: Cy5-rpoA-G (ssRNA)
RNA: AUUAGACGUGA
B3: IR-rpoA-A (ssRNA)
RNA: AUUAAACGUGA
B4: IR-rpoA-U (ssRNA)
RNA: AUUAUACGUGA

What was measured:
Experiment in all cases: high-throughput RNA pulldown from lysate on Ni-NTA beads; HRP: 50 mM Tris pH 8, 150 mM NaCl, 1 mM beta-mercaptoethanol, 50 ug/ml BSA, 3 ug/ml yeast RNA, 0.5% heparin; ITC and FP: Tris pH 8, 200 mM KCl, 5% glycerol; MST: 50 mM Tris pH 8, 200 mM NaCl, 1 mM DTT, BSA, heparin, 0.05% Tween 20
Conditions in all cases: tags: N-terminal His-eGFP
[1] = target: T1, GFP-9S library array, motif 4 ND N98D
[2] = target: T2, GFP-9S library array, motif 4 ND
[3] = target: T3, GFP-9S library array, motif 4 ND …
[4] = target: T4, GFP-9S library array, motif 4 ND …
[5] = target: T5, GFP-9S library array, motif 4 ND …

| Binder | Kd ([1]; label: 5' Cy5) [µM] | Kd ([2]; label: 5' Cy5) [µM] | Kd ([3]; label: 5' Cy5) [µM] | Kd ([4]; label: 5' Cy5) [µM] | Kd ([5]; label: 5' Cy5) [µM] | Kd ([1]; label: 5' IRDye 800CW) [µM] | Kd ([2]; label: 5' IRDye 800CW) [µM] | Kd ([3]; label: 5' IRDye 800CW) [µM] | Kd ([4]; label: 5' IRDye 800CW) [µM] | Kd ([5]; label: 5' IRDye 800CW) [µM] |
| --- | --- | --- | --- | --- | --- | --- | --- | --- | --- | --- |
| B1 | 0.395 | 0.019 | 0.111 | 0.0962 | 0.098 | – | – | – | – | – |
| B2 | 0.0551 | 0.276 | 0.0999 | 0.0911 | 0.118 | – | – | – | – | – |
| B3 | – | – | – | – | – | 0.531 | 0.0868 | 0.247 | 0.0663 | 0.2 |
| B4 | – | – | – | – | – | 0.315 | 0.00627 | 0.248 | 0.139 | 0.0959 |
